# Assay: soluble on expression in E. coli; label from the status in PepcDB or PDB records
row,Sequence,soluble on expression in E. coli
1,SLPSINALLQAEVLSRQITSPVSGINGDIRAKKIASIADVCESMKEQLLVLVEWAKYIPAFCELPLDDQVALLRAHAGEHLLLGATKRSMVFKDVLLLGNDYIVPRHCPELAEMSRVSIRILDELVLPFQELQIDDNEYAYLKAIIFFDPDAKGLSDPGKIKRLRSQVQVSLEDYINDRQYDSRGRFGELLLLLPTLQSITWQMIEQIQFIKLFGMAKIDNLLQEMLLGG,soluble
2,SLQTEESICTKIMKELHSEDSPNALVIKNEHVKKCDTWPSGGEMVVKDLTVKYVDDGNAILENISFSISPGQRVGLLGRTGSGKSTLLSAFLRMLNIKGEIQIDGVSWNSMTLQEWRKAFGVITQKVFIFSGTFRQNLDPNGKWRDEEIWKVADQVGLKSVIEQFPGQLNFTLVDGGYVLSHGHKQLMCLARSVLSKAKIILLDQPSANLDPITYQVIRRVLRQAFAGCTVVLCEHRIEAMLDCQRFLVIEQGNVWQYESLQALLSEKSVFQRALSSSEKMKLFHGRHSSKQKPRTQITAVKEETEEEVQETRL,not soluble
3,SLQTLEKSVIGVRVAVEASPVGASRRAREGWRRPASRHEAGALPLPSEQHITFFKLRPGCLDFLRRVSQTFELYMYTMGTALHAATALRILDPKRRFFGRRVFSRQDAVNGLKAIERIFPHDQKMVLVVDDLECMWRYSPCCIKVQGYHYFADVSAADARRISPHSYTQWLSMARPFCNFLPSERIKLCRHVRRCLPSKDA,not soluble
4,SLQVDASGHQILLNYRKERSLQEFVPQVSLTEVLTGKINANTVKNKIVLIGTTAESFEDYSFTPNITNQGAIRKYQVLSLQAQMISQLLSAALDGRSLIWAWSVWQETIWIWGWSLTGSLLAWYIR,not soluble
5,SLRECELYVQKHNIQALLKDSIVQLCTARPERPMAFLREYFEKLEKEEAK,soluble
6,SLRITAIREIAVPLQGNISNSLVSFAEHTVSLVALVSDVVRDGRPLIGYAFDSIGRYAQPGLMRERFIPRLLQAAPHELLDDGGQAFDPARASAIMLRNEKPGGHGDRAAAVGALELAFWDLNAKLRDEPAYCTIARHVGRPAQAGATQVYAAGGYYYDSGDPLQRLRDEFRGYLDQGFVKFKMKIGGASLADDLARIEAALGVAGEGANLAVDANGRFDLDTALAYARALEPYGLRWYEEIGDPLDYHLNSLVAQAYAGTIATGENLFSLPDVRNLLHFAGVRPGRDILQMDPGLSYGLTEYLRMMAAVEAAGFGRSCLHPHGGHLINLHIAAGLGLGGCEAYPGVFQPFGGYPAACALGAGQVRPTDAPGFGLEQKQELAPYISVLAHG,soluble
7,SLSDPIIDMHLHASAADEQGPPPLAMCAPINPMPTWDQRQPWTTGLIAMFKAPKCADPIWSPTTDDEIRDKTLAIMAKRNIIGVVSGPYKRVMAWRALAPDRVLPGLMPTMSDLSKPKVLLDDFGKAKAAGQLAVIGELGFQYEGIAPNDPRLENLWAAAEAADVPVAIHIGPGPPGVAYLPGGGYRARMSSPLLLEDVLVKHPKLRINVMHAGYPMLDDTLALLYAHPQVYVDTGVIVYSQPRPAFYRYLQTLVDAGFGERVMFGSDQMVWPETIERSIAVIDEAPFLSAQQKRDILYNNAARFLRLDEATQAKHRAM,soluble
8,SLSIKTILIDDEPKAIAILKNKIERLCPDLEIVATIEKPALAFDIINELQPQLVFIDIAMPGMSGFDVLEQFKKPQFEIIFATAFDQYALDAIKQCAIGYLVKPIDNEDLVEAVTNATTNIEQKNALVKNTQLLENINQENFHKKKIVIPSTDGLEFVKVKSITHCEGVDGYTKIHFTNRKPILSSSSIGHFKKLLSHPDFYHVHKSYVTNTNHIIKYLNDGYVTLTGDVTIPVARAKRAEFLEKFRNEG,not soluble
9,SLSYTISRPINQLMLAMQKAESGDLTSRYEGEEQDEVGRLGRSFNTMIEQIGKLISLTERQERKKREAELHSLQANIKPHFLYNTLDTIQWMARKKNASDVADLVGALSKLFRIGLSKGGTIIPLVDEIEHIKNYLQIQSVRYKNKLNYSLVMPSNMERLSILKIVLQPIVENAIYHGIKERRGPGLITIEAERENDMLIIRIRDNGKGIKPETLQQLRTNVNLFLEKGDKEGGQRLTKGYGLINVHARLRLTFGEPYGVKIDSVFNEGTVVTIFHPILEGGVETKRA,soluble

# Reference: the DeepSol protein solubility set
